Results taken from paper PMC9399094.

How the values were obtained:
[1] = biological target: S.c. Mcm2-7 complex with S6- and 3xFlag-tagged Mcm3, fluorescently labeled (S. cerevisiae) (UniProt P29469); test: single-molecule photobleaching step counting (optical tweezers with confocal microscopy); LD650-MCM on nucleosome-free λ_(ARS1) DNA with unlabeled ORC, Cdc6, Cdt1; oxygen scavenging system omitted; labeling efficiency of MCM ~60%; two hexamers to a double hexamer on DNA
[2] = system: ORC (Orc1-6);Cdc6 (Saccharomyces cerevisiae (overexpressed in strain OY001);Saccharomyces cerevisiae); test: single-molecule fluorescence, optical tweezers; conditions: biotinylated ends, H2A K120C, Single-molecule optical tweezers with confocal fluorescence, ATP present, 2 nM ORC, 5 nM Cdc6, 10 nM MCM, high-salt wash 0.5 M NaCl, buffer, pH and temperature …
[3] = biological target: S.c. nucleosome: recombinant S. cerevisiae histone octamer (H2A K120C, fluorescently labeled) assembled on λ_(ARS1) DNA (S. cerevisiae) (UniProt P04911); test: single-molecule fluorescence colocalisation (dual-trap optical tweezers with confocal microscopy); nucleosomes sparsely assembled on λ_(ARS1) DNA tethered between streptavidin beads; 2 nM Cy3- or LD650-ORC and 5 nM Cdc6 in solution; 25 mM Tris-OAc pH 7.5, 50 mM potassium glutamate, 10 mM Mg(OAc)2, 2.5 mM ATP; room temperature
[4] = system: ORC (Orc1-6);MCM (Mcm2-7);Cdc6;Cdt1 (Saccharomyces cerevisiae (overexpressed in strain OY001);Saccharomyces cerevisiae (overexpressed in strain OY001);Saccharomyces cerevisiae;Saccharomyces cerevisiae); test: single-molecule fluorescence, optical tweezers; conditions: Single-molecule optical tweezers with confocal fluorescence, ATP present, 2 nM ORC, 5 nM Cdc6, 10 nM MCM, high-salt wash 0.5 M NaCl, buffer, pH and temperature …

Work on “S.c. Mcm2-7 complex with S6- and 3xFlag-tagged Mcm3, fluorescently labeled, P29469 1-868; P24279 1-971; P30665 1-933; P29496 1-775; P53091 1-1017; P38132 1-845” yielded a fraction of MCM with two-step photobleaching [1] of 36% and a stoichiometry N [1] of 2.
Substance “S.c. nucleosomes on λARS1 DNA (all positions)” has a binding signal (% of nucleosomes with stably bound ORC) ([2]; S. cerevisiae octamer) of over 90.
For “S.c. origin recognition complex (Orc1-6) with S6-3xFlag-Orc1, fluorescently labeled (from UniProt P54784 1-914; P32833 1-620; P54790 1-616; P54791 1-529; P50874 1-479; P38826 1-435)”, the fraction of nucleosomes with a stably bound ORC at 2 nM ORC [3] was over 90%.
“X.l. nucleosomes on λARS1 DNA (all positions)” showed a binding signal (% of nucleosomes with stably bound ORC) ([2]; Xenopus laevis octamer) of over 90.
λARS1 DNA, ARS1 site was tested, and the binding signal ([4]; 0.5 M NaCl wash, biotinylated ends (biotin-11-dUTP, biotin-14-dCTP fill-in), scale: % of MCM loaded) was 62.
Work on λARS1 DNA, non-ARS1 positions yielded a binding signal ([4]; 10 nM MCM, 5 nM Cdc6, biotinylated ends, scale: % of stably bound MCM located at non-ARS1 positions) of 86 and a binding signal ([4]; 0.5 M NaCl wash, biotinylated ends, scale: % of MCM loaded) of 25.
